# In patent publication US20140349341:
# Experiments:
# [1] = tested on: Mgat1 ZFN left monomer (CompoZr, FokI fusion) (synthetic construct); assay: cell_activity; conditions: Cel-I assay day 3 in CHO cells (9.6% day 10); value is for ZFN pair; spacer ccagca
# [2] = tested on: Mgat1 ZFN right monomer (CompoZr, FokI fusion) (synthetic construct); assay: cell_activity; conditions: Cel-I assay day 3 in CHO cells (9.6% day 10); value is for ZFN pair; spacer ccagca
Sequence,activity [1] [%],activity [2] [%]
AACAAGTTCAAGTTC (double strand) [CHO Mgat1 ZFN left half-site],8.8,–
GCTGTGGTAGTGGAGGAC (double strand) [CHO Mgat1 ZFN right half-site],–,8.8
